Data from the supplement of paper PMC10567573.
± gives the standard deviation.

Assay: protein stability index of a GFP-peptide fusion (GPS, HEK-293T) (PSI 1-6); higher = more stable
Conditions: c terminus: a fixed tail appended
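Also: 24-mer peptide tiles fused after GFP, lentivirally expressed, FACS-sorted into six equal bins by GFP/DsRed ratio, decoded by Illumina sequencing, PSI is the read-weighted mean bin number.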

Sequence	protein stability index (treatment: DMSO)	protein stability index (treatment: MLN4924 1 uM, 8 h)
AGRPRAERRPRRVEAERPHSLIGV [FAM189A2]	4.05 ± 0.15	3.94 ± 0.21
DLSGIQTSDAAFLTQWKDSLVSLV [ZER1]	2.37 ± 0.33	2.49 ± 0.26
VPWSQCLQNFLLHGTKNVTNSSSL [WSB1]	2.19 ± 0.21	2.19 ± 0.24
ESLQELRLLLAGAEVQAKLENAEV [HES6]	2.84 ± 0.41	3.15 ± 0.4
GADGVMRTMAPEKLLKSMPILQGQ [SNAP91]	3.76 ± 0.32	3.77 ± 0.28
TVQDYQDLIDRGWRRSGKYVYKPV [ATE1]	2.89 ± 0.21	3.03 ± 0.51
GLLAGVGYFAFMLFRKRLGSMILA [GDAP1]	1.99 ± 0.082	2.37 ± 0.41
HFPHLLSPQIQRSAHRALYRRHVL [TMEM175]	2.69 ± 0.26	2.85 ± 0.15
AKARDLYKGRQLQGCPGAKKHEFL [SMOC2]	3.03 ± 0.3	3.2 ± 0.34
EVAEQLELERIGPQHQAGSDSLLT [CNOT7]	4.9 ± 0.14	4.85 ± 0.15
RMEGSQEVVNMAVIVPKEEGVISV [WDFY2]	3.23 ± 0.36	3.45 ± 0.17
SRVLQNGGDKLETMPLYLEDDIRP [SCD]	4.66 ± 0.23	4.53 ± 0.21
KAMESQRAYRFVQGKDWGFKKFIR [SPOPL]	2.22 ± 0.38	2.09 ± 0.21
MKKAKEQLKIRKSNQIPTEVRSKA [FUNDC2]	4.59 ± 0.34	4.76 ± 0.45
RGSKMFKLRQMRVEKFIYENHPDV [MYOZ1]	2.9 ± 0.37	2.52 ± 0.12
EPSFAQFSQEIGLASLGASEEAVQ [TPH1]	5.17 ± 0.61	4.99 ± 0.37
DQLNDGQDFAKDLLKTLYNSIKNE [PSD2]	3.56 ± 0.21	3.71 ± 0.32
QVESRWGYSGTSDRIRFTVNRRIS [BTBD1]	3.38 ± 0.23	3.53 ± 0.37
ANQLIDIISSDELNVRSEEQVFNA [KLHL20]	4.42 ± 0.21	4.34 ± 0.25
GMESYQEVTVQRNCCLTLCNFSIP [ZER1]	2.41 ± 0.52	2.1 ± 0.42
TLHGNVCSFCKRAFPSGHLLDAHI [ZNF511]	2.81 ± 0.27	2.95 ± 0.46
ENKQVVIIHHMRLQAKALQLIVTA [INTS4]	3.01 ± 0.56	3.03 ± 0.44
FDVHPNELTNGVINAAFMLLFKDL [SNAP91]	2.84 ± 0.81	2.24 ± 0.41

Sequence	protein stability index (treatment: DMSO)	protein stability index (treatment: MLN4924 1 uM, 8 h)
DWFTSYVKNVVSGGFPIIRDQIFR [FBXO3]	2.61 ± 0.34	2.41 ± 0.39
HLVQHQRIHSGEKPYECNECGKAF [ZNF232]	3.65 ± 0.21	3.8 ± 0.098
PLLKMDLNSEQAEQLERINDALSC [FAM98B]	4.29 ± 0.24	4.36 ± 0.1
LRRSVEKYNSARADFEQKMLDSAL [FCHO1]	3.29 ± 0.54	3.35 ± 0.14
VKVIMDALDERAKVLHEDKQTREQ [TRIM29]	3.84 ± 0.098	3.84 ± 0.39
DKVIMKLGKTNAKAVSEMRQKIWN [DYNC2LI1]	2.31 ± 0.12	2.54 ± 0.32
GQIIKDIDSGSPAEEAGLKNNDLV [PDZK1]	5.31 ± 0.33	5.27 ± 0.079
QIVQLTQQVDTNISVILPTVHEVD [DENND6A]	3.07 ± 0.35	3.3 ± 0.37
WTLKLDGNLQLDCLAQGWKQYQQR [RTP4]	2.2 ± 0.26	2.55 ± 0.26
FWNFKQMWDSKKIGLRQHHCRKCG [WDFY2]	2.34 ± 0.28	2.66 ± 0.45
RRLRDMVERPHSGLPGKVFACLSV [KCNG1]	2.47 ± 0.49	2.4 ± 0.49
DTTRQVQRISCFQSTVKCLTVLQR [WDR41]	2.42 ± 0.33	2.63 ± 0.35
PMVLMIIVMCVQIKCFHEIITIGY [CDS2]	3.01 ± 0.43	3.14 ± 0.66
HSVLVDDDGIKVVKVTFNKQDSLV [TMEM106C]	3.09 ± 0.27	3.18 ± 0.36
CKKLSLELGGKNPAIIFEDANLDE [ALDH8A1]	4.4 ± 0.11	4.32 ± 0.26
LNEEQTLQEVPTGLDSISHDSANC [ETS2]	5.54 ± 0.073	5.33 ± 0.18
KVPREKDEPGKGGFWRIDPQYAER [FOXJ1]	4.12 ± 0.34	4.2 ± 0.21
QLLFVIFLLLYLFTLGTNAIIIST [OR10K2]	3.18 ± 0.37	3.19 ± 0.23
DAMLKEASGPINFTMFLNLFGEKL [MYL5]	2.23 ± 0.55	2.27 ± 0.28
SLGSALKPGEGRSALFAGNEWRRP [TRIM29]	3.46 ± 0.26	3.31 ± 0.21
MFFTCGPNEAMVVSGFCRSPPVMV [FLOT1]	2.93 ± 0.52	2.9 ± 0.74
DLEVDMNKTEVTPRLWTTCRDGEV [ACSBG2]	3.96 ± 0.15	3.95 ± 0.064
GGRKGRTLLLQGHHDKVQSLCYLQ [WDFY1]	2.54 ± 0.095	2.73 ± 0.32

Sequence	protein stability index (treatment: DMSO)	protein stability index (treatment: MLN4924 1 uM, 8 h)
DRDGHIKLTDFGFAKKLVDRTWTL [PRKX]	2.1 ± 0.35	2.35 ± 0.42
VEKIRKLPNTLLRKDKDVARLQDF [ANKRD40]	2.93 ± 0.22	3.02 ± 0.28
LAAVAWVGQQVHNLLLTYLIVTSL [ARL6IP1]	3.32 ± 0.44	3.3 ± 0.53
GLQSAQPTEGQGSLLTNWPSVPPT [MYBL2]	4.02 ± 0.28	4.14 ± 0.092
PAGTPPPTARHFQEHPRQQLATSS [MOSPD3]	4.74 ± 0.27	4.83 ± 0.17
TGFLIIILAIIAKEGDCAPEEKIW [MAGEA6]	2.93 ± 0.65	2.71 ± 0.61
LKSLDKEISEAFTSTGFDRHTSPV [BCL2L13]	3.98 ± 0.36	4.12 ± 0.44
ELKKLKNLEGNELQRHADEFLLDL [FUT8]	3.61 ± 0.25	3.59 ± 0.3
IAVAWIYGTKKFMQELTEMLGFRP [SLC6A17]	2.62 ± 0.78	2.1 ± 0.61
LESLQDGAAESPYSHLGGIDYKTT [RAB40A]	4.44 ± 0.12	4.35 ± 0.11
LMMCFILPTLVPWYFWGETFQNSV [SCD]	2.94 ± 0.69	3.24 ± 0.075
EGEPATQRQDPAAAQEGEDEGASA [GAGE1]	5.55 ± 0.11	5.56 ± 0.26
SNFNYFYHRETEGEEQAQLLHVSS [KCNA1]	3.95 ± 0.12	4.03 ± 0.34
FETQLKTLCQFPETLLGDPKRRMR [KCNA3]	3.54 ± 0.35	3.65 ± 0.28
ILFLVIGGMLNFMMHDQRTGPAWN [SOAT2]	3.27 ± 0.46	3.26 ± 0.55
TLLHFSAARGKERCVRVFLEHGAD [ASB7]	2 ± 0.2	2.21 ± 0.3
SGRRGPPPPPRSRGPPRGLRGGRG [RBMX]	4.87 ± 0.25	5.14 ± 0.3
NMKNGANDVKHHRWFRSVDWEAVP [PRKX]	2.95 ± 0.33	3.08 ± 0.33
GFTDRREARKYASNLLKAGFIRHT [DVL3]	2.66 ± 0.28	2.71 ± 0.32
MGCTLSAEDKAAVERSKMIDRNLR [GNAI1]	4.64 ± 0.32	4.54 ± 0.1
FGHVMHQICAQVSFFFPPVNLPIS [NLN]	2.71 ± 0.69	3.42 ± 0.31
PFIVFGATGLTSGLLSLLLPETLN [SLC22A15]	3.19 ± 0.49	3.14 ± 0.42
VHLLLKKVLFALCALNALTTTVCL [FAM189A2]	3.48 ± 0.24	3.02 ± 0.36

Sequence	protein stability index (treatment: DMSO)	protein stability index (treatment: MLN4924 1 uM, 8 h)
SWVLSMLYGFLLTFGFITMTPQLF [CLPTM1]	3.21 ± 0.47	3.03 ± 0.16
MCKADLSRNFIERNHMENGGDHRY [TRIM29]	3.41 ± 0.25	3.33 ± 0.26
LQIYQYVPKDQRLQAIKAAIMLLP [DLC1]	2.64 ± 0.62	2.41 ± 0.58
KKINSNQLENEQSQENSINPIQKE [SPANXN3]	5.66 ± 0.29	5.58 ± 0.26
YTATEQEMQQQMSLGELCHPVPLS [TRIM14]	4.26 ± 0.23	4.14 ± 0.27
SVILSVKFSPFGQWWASVGMDDFL [TLE6]	3.22 ± 0.46	3.02 ± 0.49
SVWGYDLGLRSLIPAVLTVSMLGY [MYORG]	3.05 ± 0.29	3.06 ± 0.4
FSDDCDLPSAQDINRLVGLQNTYM [GLT8D2]	3.68 ± 0.26	3.66 ± 0.11
YRDLAGGTGRSAKEQVLRKGTENL [FCHSD1]	4.16 ± 0.18	4.2 ± 0.33
SEATLPAQMSTLHVSPPPSADPAR [PDLIM4]	5.26 ± 0.17	5.17 ± 0.18
LLLAHKADVNAQSSTGNTALTYAC [ANKRD17]	2.76 ± 0.18	2.57 ± 0.18
YAPEAPYTSPDKLKDIFMFITRQL [PDS5B]	2.59 ± 0.28	1.97 ± 0.34
GLQPVVFVLFLFAYLVTVRGNLSI [OR3A1]	2.6 ± 0.47	2.19 ± 0.21
QIRDWRGGRLENQKPRGLEGGVLR [ZSWIM9]	3.3 ± 0.54	3.57 ± 0.15
GRLELKPLLLRLPRICQRNLMSLL [FANCE]	2.63 ± 0.33	2.7 ± 0.23
DKVSDGVTKSPEKRSSLPRPSSIL [MAP2]	4.88 ± 0.14	4.99 ± 0.26
LSSIKRDTNSIAKAIKARGEVIHC [STX11]	3.22 ± 0.19	3.32 ± 0.2
KHGKRKRGRPRKLSKEYWDCLEGK [ELF3]	4.18 ± 0.44	4.38 ± 0.18
PPPLPNHKYNTTSTSYSPLASLPL [PLAGL1]	3.29 ± 0.17	3.33 ± 0.091
SDLLNDQDLLDVIRIKLDPCHPTV [EDARADD]	2.67 ± 0.23	2.78 ± 0.21
